Reference: US20120172578A1 (VLAAMS INTERUNIVERSITAIR INSTITUUT VOOR BIOTECHNOLOGIE, published 2012)

Tests used:
[1] = molecular target: T1, Prostate Specific Antigen (UniProt P07288 25-261); assay: column 'Antigen recognized by antibody'
T1 construct: also called PSA

human serum albumin = molecular target: T2, human serum albumin (human, UniProt P02768 25-609); assay: column 'Antigen recognized by antibody'
T2 construct: also called HSA

β-lactamase = assay: BIAcore
TEM1 [2] = molecular target: T3, TEM1 (UniProt P62593 24-286); assay: column 'Antigen recognized by antibody'
T3 construct: also called β-lactamase; b-lactamase

TEM1 [3] = molecular target: T3, TEM1; assay: IMAC co-purification, Coomassie stained PAGE
[4] = molecular target: T1, Prostate Specific Antigen; assay: BIAcore
[5] = molecular target: T4, Carcino Embryonic Antigen (UniProt P06731 35-685, limits assumed); assay: column 'Antigen recognized by antibody'
T4 construct: also called CEA; CEA tumor antigen
T4 sequence (looked up): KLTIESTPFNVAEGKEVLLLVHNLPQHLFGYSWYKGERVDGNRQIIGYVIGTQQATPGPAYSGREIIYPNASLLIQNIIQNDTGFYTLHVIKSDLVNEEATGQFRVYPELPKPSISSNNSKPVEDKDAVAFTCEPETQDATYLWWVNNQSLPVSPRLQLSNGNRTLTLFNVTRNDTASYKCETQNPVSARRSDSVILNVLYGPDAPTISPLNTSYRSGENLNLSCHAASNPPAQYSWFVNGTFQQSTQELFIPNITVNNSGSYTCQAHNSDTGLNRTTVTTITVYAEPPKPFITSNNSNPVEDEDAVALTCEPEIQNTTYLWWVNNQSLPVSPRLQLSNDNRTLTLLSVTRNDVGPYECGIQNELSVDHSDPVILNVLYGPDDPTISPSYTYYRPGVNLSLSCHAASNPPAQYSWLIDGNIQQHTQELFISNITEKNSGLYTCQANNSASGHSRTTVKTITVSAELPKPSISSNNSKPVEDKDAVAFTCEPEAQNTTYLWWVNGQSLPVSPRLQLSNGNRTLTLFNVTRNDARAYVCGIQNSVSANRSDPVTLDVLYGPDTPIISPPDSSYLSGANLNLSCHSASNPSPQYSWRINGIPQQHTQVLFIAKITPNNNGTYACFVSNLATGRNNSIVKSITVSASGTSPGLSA

[6] = molecular target: T4, Carcino Embryonic Antigen; assay: ELISA on coated CEA
Method: A microtiter plate (Maxisorp, NUNC) was coated overnight at 4° C. with CEA (Scripps) at a concentration of 1 μg/ml (in PBS), and blocked for two hours at room temperature (RT) with 300 μl 1% casein in PBS. The plates were washed three times with PBS-tween. […] Plates were washed six times with PBS-tween, after which binding of VHH was detected by incubation with mouse anti-Histidine mAB (Serotec; 1:1000 diluted; 100 μl/well) for 1 hour at RT followed by anti-mouse-alkaline phosphatase conjugate (Sigma, 1:2000 diluted), also for 1 hour at RT. Staining was performed with the substrate PNPP (p-nitrophenyl-phosphate, 2 mg/ml in 1M diethanolamine, 1 mM Mg₂SO₄, pH9.8) and the signals were measured after 30 minutes at 405 nm.

[7] = molecular target: humanized mouse mAb to CD40; assay: BIAcore

T1 sequence (P07288 25-261 limits assumed): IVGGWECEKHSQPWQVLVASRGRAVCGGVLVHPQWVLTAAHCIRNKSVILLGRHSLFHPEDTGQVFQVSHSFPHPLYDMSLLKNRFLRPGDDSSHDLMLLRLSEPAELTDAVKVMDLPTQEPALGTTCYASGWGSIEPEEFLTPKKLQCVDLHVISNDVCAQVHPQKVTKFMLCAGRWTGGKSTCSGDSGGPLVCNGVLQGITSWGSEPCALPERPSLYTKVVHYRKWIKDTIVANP
T2 sequence (P02768 25-609 limits assumed): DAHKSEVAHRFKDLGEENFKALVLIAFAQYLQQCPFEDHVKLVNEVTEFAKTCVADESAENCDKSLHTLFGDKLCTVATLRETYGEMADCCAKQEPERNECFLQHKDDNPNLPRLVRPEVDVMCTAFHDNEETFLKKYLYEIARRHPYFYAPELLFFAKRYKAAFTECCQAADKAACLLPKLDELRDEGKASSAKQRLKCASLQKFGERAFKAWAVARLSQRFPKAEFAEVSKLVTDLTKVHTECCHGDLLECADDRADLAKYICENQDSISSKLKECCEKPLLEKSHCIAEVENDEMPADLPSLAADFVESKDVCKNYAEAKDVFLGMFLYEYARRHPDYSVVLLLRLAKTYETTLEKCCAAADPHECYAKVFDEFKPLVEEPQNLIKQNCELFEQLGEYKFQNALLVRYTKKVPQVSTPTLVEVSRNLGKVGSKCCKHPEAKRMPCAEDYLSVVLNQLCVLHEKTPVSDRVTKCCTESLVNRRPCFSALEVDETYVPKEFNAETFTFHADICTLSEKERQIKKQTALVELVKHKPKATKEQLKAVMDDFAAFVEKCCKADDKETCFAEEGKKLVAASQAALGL
T3 sequence (P62593 24-286 limits assumed): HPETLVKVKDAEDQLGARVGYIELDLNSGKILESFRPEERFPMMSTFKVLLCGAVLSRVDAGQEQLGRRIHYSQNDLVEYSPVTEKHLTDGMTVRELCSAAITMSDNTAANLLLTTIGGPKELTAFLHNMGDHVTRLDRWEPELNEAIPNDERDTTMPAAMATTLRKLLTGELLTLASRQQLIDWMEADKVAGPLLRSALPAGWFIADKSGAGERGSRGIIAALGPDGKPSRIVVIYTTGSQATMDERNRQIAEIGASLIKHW

B1: N15-B (VHH)
VHH: DVQLQESGGGSVQAGGSLRLACAATAYTYDSNVLGWFRQAPGKEHEGVAVIYTGTRTTYYADSVKGRFTISQDNAKNTVYLQMNSLKPGDTAMYFCAANVRLGGVWSFDYRGQGTQVTVSS
notes: Dromedary single domain; purified on Ni-NTA
binding result [1]: binds

B2: ALB-4 (VHH)
VHH: QVQLQESGGGLVQPGNSLRLSCAASGFSFRSFGMSWVRQAPGKGPEWVSSINSSGDDTRYTDSVKGRFTISRDNAKSTLYLQMNSLKPEDTAVYYCTIGSSISRSSQGTQVTVSS
notes: Llama single domain; purified on Ni-NTA
binding result (human serum albumin): binds

B3: cAbBLA01 (VHH)
VHH: QLQLVESGGGSVQSGGSLRLSCKVSGYIGSTNCMGWFRQAPGKEREGVASLFTGSGNTYYGDSVKGRFTISEDNAKNTVSLQMNSLKPEDTAMYYCASSSNVGSDESCGRKNTRQFVYTYQGQGTQVTVSS
Kd (β-lactamase): < 1 nM

B4: anti-β-lactamase VHH TEM04 (wild type) (VHH)
VHH: QVQLVESGGGLVQAGGSLRLSCAASGFTFSSAWMTWVRQAPGKGLEWVTSIATDGSTDYADSVKGRFTISRDNAKNTLYLQLNSLNTEDTAVYYCAKDRWGYVVRGQGTQVTVSS
notes: also called cAbTEM04
binding result (TEM1 [2]): binds

B5: anti-β-lactamase VHH TEM04 R103W mutant (VHH)
VHH: QVQLVESGGGLVQAGGSLRLSCAASGFTFSSAWMTWVRQAPGKGLEWVTSIATDGSTDYADSVKGRFTISRDNAKNTLYLQLNSLNTEDTAVYYCAKDRWGYVVWGQGTQVTVSS
notes: also called VHH TEM04 mutant; TEM04 W (mutant)
binding result (TEM1 [3]): binds

B6: N8-B (VHH)
VHH: DVQLQESGGGLVQPGGSLRLSCAASGFLFSDTYMTWARQAPGKGLEWLGGISKDGSGTLYEDSVEGRFTISRDNAKNTLYLQMNSLKSEDTALYYCSTGALLPTRPQGQGTQVTVSS
notes: as for B1
Kd [4]: 1.6 nM

B7: C12-A (VHH)
VHH: DVQLQESGGGLVRPGGSLRLSCAASGFLFSGTYMTWARQAPGKGLEWLCGINKDGSGTLYADSVEGRFTCSRDNAKNTLYLQMNSLKSEDTALYYCSTGALLPTRPQGQGTQVTVSS
notes: as for B1
Kd [4]: 2.6 nM

B8: ALB-2 (VHH)
VHH: QVQLQESGGGLVQPGGSLRLTCTASGFAFSNFGMSWVRQPPGKGLEWVSAISADSSTKNYADSVKGRFTISRDNTKKMLYLEMNSLKPEDTAVYHCVIGRGSASSQGTQVTVSS
notes: as for B2
binding result (human serum albumin): binds

B9: ALB-5 (VHH)
VHH: QVQLQESGGGLVQPGGSLRLTCTASGFAFSSFGMSWVRQPPGKGLEWVSAISADSSTKNYADSVKGRFTISRDNDKKMLYLEMNKLKPEDTAVYHCVIGRGSPSSQGTQVTVSS
notes: as for B2
binding result (human serum albumin): binds

B10: N13-A (VHH)
VHH: DVQLQESGGGSVQPGGSLRLSCAASGFTFKDASMNWVRQAPGKGLEWVSAINGGGTVTDYADPMEGRFTISRDNAKNTLYLQMNSLNFEDTALYYCATGWLFRANNYRGQGTQVTVSS
notes: as for B1
binding result [1]: binds

B11: C9-B (VHH)
VHH: DVQLQESGGGLVQPGGSLRLSCAASGFTFSNHYMTWVRQAPGKGLEWVSVISNDGRYTDYADSVKGRFTISRDNAKNTLYLQMNSLKTEDTALYTCVRGYYLTNLPAGDRGQGTQVTVSS
notes: as for B1
Kd [4]: 3.9 nM

B12: C24-A (VHH)
VHH: DVQLQESGGGLVQPGGSLRLSCAASGFAFTPSYMSWVRQAPGKGLEWVSVISNDGRYTDYADSVKGRFTISRDNAKNTLYLQMNSLKTEDTALYTCVRGYYLTNLPAGDRGQGTQVTVSS
notes: as for B1
binding result [1]: binds

B13: ALB-1 (VHH)
VHH: QVQLQESGGGLVQPGGSLRLSCAASGFAFSSFPMTWVRQAPGKGLEWVSGILEGGGSPAYADSVKGRFTISRDDAKNTLYLQMNSLKPEDTAVYYCAKGYVYAREGARSQGTQVTVSS
notes: as for B2
binding result (human serum albumin): binds

B14: CEA1 (VHH)
VHH: QVQLVESGGGLVQPGGSLRLSCAASGFTFSKYDMSWVRQAPGKGLEWVSRISSGGGSTYYADSVKGRFTISRDNAKNTLYLQMNSLKPEDTAVYYCATPTYSSDYRGLPPGQGTQVTVSS
notes: as for B1
binding result [5]: binds

B15: N3-A (VHH)
VHH: DVQLQESGGSLVQPGGSLRLSCAASGFTFSAYYMIWVRQAPGKGLEWVSGISANGRDTLYEDSVEGRFAISRDNAKNTLYLQMNSLRSEDTALYYCVIGALITGRRGQGTQVTVSS
notes: as for B1
binding result [1]: binds

B16: C11-B (VHH)
VHH: DVQLQESGGGLVQPGGSLRLSCAASGFIFSNTYMTWVRQAPGKGLEWVSGISADGRDTLYADSVEGRFAISRDNAKNTLYLQMNSLRSEDTALYYCVTGALMTGRRGQGTQVTVSS
notes: as for B1
Kd [4]: 2.6 nM

B17: C1-B (VHH)
VHH: DVQLQESGGGLVQPGGSLRLSCAASGFTFSTSYMTWARQAPGKGLEWVSGINRDGNNPLYADSVEGRFTVSRDNAKNTLYLQMNSLKSEDTALYYCVAGALVAGARGQGTQVTVSS
notes: as for B1
Kd [4]: 0.8 nM

B18: anti-carcinoembryonic antigen VHH CEA71 (wild type) (VHH)
VHH: QVQLVESGGGLVQPGGSLRLSCAASGFTFSSSYMSWVRQAPGKGLEWVSGINTDGSFTRYADSVKGRFTISRDNAKNTLYLQMNSLKSEDTALYYCAVGGGLGYGPRGQGTLVTVSS
notes: also called CEA71 WT; CEA wild type VHH
fold lower concentration at which it binds, against the R103W mutant [6]: ~10 fold

B19: CEA72 (VHH)
VHH: QVQLVESGGGLVQPGGSLRLSCAASEFTFSSSYMSWVRQAPGKGLEWVSGINTDGSFTRYADSVKGRFTISRDNAKNTLYLQMNSLKSEDTALYYCAVGGGLGYGPRGQGTQVTVSS
notes: as for B1
binding result [5]: binds

B20: CD40-1 (VHH)
VHH: QVQLVESGGGLVQPGGSLRLSCAASGFAFSRYSMYWVRQAPGKGLEWVSEIYPDGNGWYTSSVKGRFTISRDNDKNMLYLQMNSLKPDDTAVYYCALSRSGQGRGQGTRVTVSS
Kd [7]: 2 nM

B21: ALB-3 (VHH)
VHH: QVQLQESGGGLVQPGNSLRLSCAASGFAFGNFGMSWVRQAPGKEPEWVSSIDSIGSDTLYADFVKGRFTISRDNAKSTLYLQMNSLKPEDTAVYYCTIGGSLSRSSQGTQVTVSS
notes: as for B2
binding result (human serum albumin): binds
